Experimental findings from the Immune Epitope Database (IEDB) are described below.

pKd: −log10 of the molar value. A value given as a limit tells only on which side of the number the result lay.

For one assay, the target named is HLA-A*80:01. In words: IEDB peptide-MHC binding, purified MHC/direct/fluorescence; filed as Kd, often an IC50 or EC50 that approximates it; ≥ and ≤ were set here for values at or beyond the usual limits of such assays. As to conditions: source organism: Camelpox virus M-96.
The target of a further assay is HLA-A*30:01. Described as above. As to conditions: source organism: Variola virus.
For another assay, the target named is HLA-B*48:01. Described as above. Particulars: source organism: Mycobacterium tuberculosis.
The target in assay [1] is HLA-B*07:02. Described as above. Particulars: source organism: Mycobacterium tuberculosis.
Assay [2] addresses HLA-A*02:01. Described as above. As to conditions: source organism: Mycobacterium tuberculosis.
For a further assay, the target named is HLA-A*11:01. The assay is described as above. Particulars: source organism: Mycobacterium tuberculosis.
Another assay has as its target HLA-B*40:01. Described as above. As to conditions: source organism: Mycobacterium tuberculosis.
The target of the next assay is HLA-B*58:01. The description is as above. Particulars: source organism: Mycobacterium tuberculosis.
In another assay the target is HLA-A*31:01. The description is as above. As to conditions: source organism: Mycobacterium tuberculosis.
For another assay, the target named is HLA-B*27:05. The description is as above. As to conditions: source organism: Mycobacterium tuberculosis.
Assay [3] has as its target HLA-A*26:02. In words: IEDB peptide-MHC binding, purified MHC/competitive/fluorescence; filed as Kd, often an IC50 or EC50 that approximates it; ≥ and ≤ were set here for values at or beyond the usual limits of such assays. As to conditions: source organism: Mycobacterium tuberculosis C.
The target in a further assay is HLA-B*35:01. The description is as above. Particulars: source organism: Mycobacterium tuberculosis C.
For another assay, the target named is HLA-A*26:01. The assay is described as above. As to conditions: source organism: Mycobacterium tuberculosis C.
The target in the next assay is HLA-A*26:03. The assay is described as above. As to conditions: source organism: Mycobacterium tuberculosis C.
A further assay deals with HLA-A*69:01. The description is as above. Particulars: source organism: Mycobacterium tuberculosis C.
For a further assay, the target named is HLA-A*01:01. Described as above. As to conditions: source organism: Mycobacterium tuberculosis C.
Another assay deals with HLA-B*15:17. The description is as above. As to conditions: source organism: Mycobacterium tuberculosis C.
In a further assay the target is HLA-A*68:02. The assay is described as above. As to conditions: source organism: Mycobacterium tuberculosis C.
Another assay addresses HLA-B*57:01. The description is as above. Particulars: source organism: Mycobacterium tuberculosis C.
For assay [4], the target named is HLA-B*15:01. In words: IEDB peptide-MHC binding, purified MHC/direct/fluorescence; filed as Kd, often an IC50 or EC50 that approximates it; ≥ and ≤ were set here for values at or beyond the usual limits of such assays. Particulars: source organism: Yellow fever virus.
Assay [5] has as its target HLA-A*26:02. The description is as above. As to conditions: source organism: Yellow fever virus.
Assay [6] has as its target HLA-B*46:01. The description is as above. As to conditions: source organism: Yellow fever virus.
A further assay has as its target HLA-B*27:20. In words: IEDB peptide-MHC binding, purified MHC/competitive/fluorescence; filed as Kd, often an IC50 or EC50 that approximates it; ≥ and ≤ were set here for values at or beyond the usual limits of such assays. As to conditions: source organism: Influenza A virus (A/swine/Hannover/1/1981(H1N1)).
Assay [7] deals with HLA-B*07:02. Described as above. Particulars: source organism: Influenza A virus (A/swine/Hannover/1/1981(H1N1)).
A further assay addresses HLA-B*15:42. The assay is described as above. Particulars: source organism: Influenza A virus (A/swine/Hannover/1/1981(H1N1)).
The target of a further assay is HLA-C*14:02. The assay is described as above. As to conditions: source organism: Influenza A virus (A/swine/Hannover/1/1981(H1N1)).
The next assay has as its target HLA-B*83:01. The assay is described as above. Particulars: source organism: Influenza A virus (A/swine/Hannover/1/1981(H1N1)).
The target of the next assay is HLA-B*45:06. Described as above. Particulars: source organism: Influenza A virus (A/swine/Hannover/1/1981(H1N1)).
For assay [8], the target named is HLA-B*15:01. The description is as above. Particulars: source organism: Mycobacterium tuberculosis C.
The target in the next assay is HLA-A*24:03. Described as above. As to conditions: source organism: Mycobacterium tuberculosis C.
The next assay concerns the target HLA-B*18:01. Described as above. As to conditions: source organism: Mycobacterium tuberculosis C.
The target in another assay is HLA-B*39:01. The description is as above. As to conditions: source organism: Mycobacterium tuberculosis C.
Assay [9] addresses HLA-A*02:01. The assay is described as above. Particulars: source organism: Mycobacterium tuberculosis C.
In the next assay the target is HLA-A*02:03. Described as above. Particulars: source organism: Mycobacterium tuberculosis C.
The target of the next assay is HLA-B*27:03. The description is as above. As to conditions: source organism: Mycobacterium tuberculosis C.
The target of the next assay is HLA-B*51:01. The description is as above. Particulars: source organism: Mycobacterium tuberculosis C.
A further assay addresses HLA-A*02:12. The assay is described as above. Particulars: source organism: Mycobacterium tuberculosis C.
In the next assay the target is HLA-A*03:01. The assay is described as above. Particulars: source organism: Mycobacterium tuberculosis C.
Assay [10] has as its target HLA-B*46:01. The assay is described as above. As to conditions: source organism: Mycobacterium tuberculosis C.
In another assay the target is HLA-A*23:01. The assay is described as above. As to conditions: source organism: Mycobacterium tuberculosis C.
In another assay the target is HLA-A*02:11. The assay is described as above. As to conditions: source organism: Mycobacterium tuberculosis C.
The target of a further assay is HLA-A*02:19. Described as above. Particulars: source organism: Mycobacterium tuberculosis C.
Another assay has as its target HLA-A*29:02. The description is as above. As to conditions: source organism: Mycobacterium tuberculosis C.
In a further assay the target is HLA-A*02:16. The assay is described as above. As to conditions: source organism: Mycobacterium tuberculosis C.

Consider ITYLMNRFK, for which the pKd with HLA-A*80:01 is not above 4.70; with HLA-A*30:01, not below 9.00.
In the case of LTFLDCLYY, the pKd with HLA-B*48:01 is not above 4.70; with HLA-B*07:02 [1] it was not above 4.70; in the assay with HLA-A*02:01 [2], not above 4.70; with HLA-A*11:01, 7.13; with HLA-B*40:01, not above 4.70; in the assay with HLA-B*58:01, 6.84. Further, the pKd with HLA-A*31:01 is not above 4.70; in the assay with HLA-B*27:05 it was not above 4.70; with HLA-A*26:02 [3], not above 4.70; with HLA-B*35:01 it was 7.15; in the assay with HLA-A*26:01 it was 6.96; with HLA-A*26:03 it was not above 4.70. Further, the pKd with HLA-A*69:01 was not above 4.70; with HLA-A*01:01 it was 8.40; with HLA-B*15:17, 9.30; in the assay with HLA-A*68:02, not above 4.70; with HLA-B*57:01, 6.73.
With LVLAVGPAY, the pKd in the assay with HLA-B*15:01 [4] is 7.27; with HLA-A*26:02 [5], 6.26; with HLA-B*46:01 [6], not above 4.70.
Regarding RRRFVQNAL, the pKd with HLA-B*27:20 was 8.89; in the assay with HLA-B*07:02 [7], not above 4.70; in the assay with HLA-B*15:42, not above 5.30; with HLA-C*14:02, 6.68; with HLA-B*83:01, not above 5.30; with HLA-B*45:06, not above 5.30.
For the sequence SLVAIHLAC, the pKd with HLA-B*15:01 [8], with HLA-A*24:03, with HLA-B*18:01, with HLA-B*39:01, in the assay with HLA-A*02:01 [9] and with HLA-A*02:03 was not above 4.70 throughout. Also, the pKd with HLA-B*27:03, in the assay with HLA-B*51:01, with HLA-A*02:12, with HLA-A*03:01, with HLA-A*26:01 and with HLA-B*46:01 [10] was not above 4.70 throughout. The pKd in the assay with HLA-A*23:01 was not above 4.70; in the assay with HLA-A*02:11, 6.35; in the assay with HLA-A*02:19, not above 4.70; with HLA-A*69:01, not above 4.70; in the assay with HLA-A*29:02, not above 4.70; in the assay with HLA-B*15:17, not above 4.70. The pKd in the assay with HLA-A*68:02, in the assay with HLA-B*57:01 and with HLA-A*02:16 was not above 4.70 each time.
